{"source": "paper PMC12199698", "about": "“Reliable prediction of protein–protein binding affinity changes upon mutations with Pythia-PPI” (National Science Review, 2025)", "target": "T1, SARS-CoV-2 prototype receptor binding domain (SARS-CoV-2 prototype, GISAID …, UniProt P0DTC2)", "T1 construct": "also called SARS-CoV-2 PT RBD; RBD", "assay": "SPR; BIAcore 8K; antibody captured on a Protein A chip ([…]; running buffer PBST (PBS + 0.05% ([…]) Tween 20); […]; 1:1 (Langmuir) binding model; […]", "conditions": "both partners purified", "data": [{"binder": "CB6 antibody (wild type) (antibody, V domains shown, heavy chain variable region of CB6; constant region of human IgG1; light chain variable part of CB6; Ig kappa chain (constant part) to which the light chain was fused; IgG1, kappa; also called WT) VH: EVQLVESGGGLVQPGGSLRLSCAASGFTVSSNYMSWVRQAPGKGLEWVSVIYSGGSTFYADSVKGRFTISRDNSMNTLFLQMNSLRAEDTAVYYCARVLPMYGDYLDYWGQGTLVTVSS VL: not shown", "values": [{"measurement": "Kd", "value": 14.6, "unit": "nM"}]}]}
